# “Also recorded” adds a separate entry of the source. Structures can show the parent of a compound that is named as a salt.
# B1: seribantumab: human monoclonal anti-ErbB3 IgG2; heavy chain SEQ ID NO:7, light chain SEQ ID NO:8 (antibody, listed as Homo sapiens)
# heavy: EVQLLESGGGLVQPGGSLRLSCAASGFTFSHYVMAWVRQAPGKGLEWVSSISSSGGWTLYADSVKGRFTISRDNSKNTLYLQMNSLRAEDTAVYYCTRGLKMATIFDYWGQGTLVTVSSASTKGPSVFPLAPCSRSTSESTAALGCLVKDYFPEPVTVSWNSGALTSGVHTFPAVLQSSGLYSLSSVVTVPSSNFGTQTYTCNVDHKPSNTKVDKTVERKCCVECPPCPAPPVAGPSVFLFPPKPKDTLMISRTPEVTCVVVDVSHEDPEVQFNWYVDGVEVHNAKTKPREEQFNSTFRVVSVLTVVHQDWLNGKEYKCKVSNKGLPAPIEKTISKTKGQPREPQVYTLPPSREEMTKNQVSLTCLVKGFYPSDIAVEWESNGQPENNYKTTPPMLDSDGSFFLYSKLTVDKSRWQQGNVFSCSVMHEALHNHYTQKSLSLSPGK
# light: QSALTQPASVSGSPGQSITISCTGTSSDVGSYNVVSWYQQHPGKAPKLIIYEVSQRPSGVSNRFSGSKSGNTASLTISGLQTEDEADYYCCSYAGSSIFVIFGGGTKVTVLGQPKAAPSVTLFPPSSEELQANKATLVCLVSDFYPGAVTVAWKADGSPVKVGVETTKPSKQSNNKYAASSYLSLTPEQWKSHRSYSCRVTHEGSTVEKTVAPAECS
# Columns and labels:
# [1] = tested on: NSCLC cell lines (A549, EKVX, H358, H322M, Calu-3, H661, H441, H1355, H430); test: 3D spheroid proliferation assay with or without HRG and chemotherapy; format: cell-based, human; details: 5 nM HRG; docetaxel 111 nM, pemetrexed 1111 nM; 96hrs; three cell lines most responsive to HRG
# Protocol: HRG-driven ErbB3 signaling mediates survival signaling through the PI3K/AKT pathway and has been implicated as a general mechanism that imparts insensitivity to cytotoxic chemotherapy. […] Proliferation was measured, in the presence or absence of HRG, in a panel of nine cell lines using 3D spheroid cultures.
# [2] = tested on: human ovarian epithelial carcinoma OVCAR8 cells; test: OVCAR8 xenograft model of ovarian cancer, combination therapy study; format: in vivo, mouse; details: for tumor progression over time: FIGS. 7A-7C, monotherapy versus co-administration with fixed dose of seribantumab; for tumor growth, single agent: i.p., seribantumab 300 μg Q3D, irinotecan HCl 6.25 mg/kg Q7D, gemcitabine 25 mg/kg Q7D, paclitaxel 10 mg/kg Q7D, three weeks
# Text: In these xenograft studies, the mice were obtained from Charles River Laboratories. The mice were housed in Tecniplast® Individually Ventilated polycarbonate (Makrolon®) Cages (IVC) set in climate-controlled rooms and had free access to food and acidified water. A cell suspension of 8×10^6 cells/mouse, mixed 1:1 in reduced growth factor Matrigel™ (BD Biosciences, Cat #354230) and PBS was implanted by subcutaneous injection into the left flank of female, 4-5 week old nu/nu nude, Crl:NU-Foxn1^nu mice. Tumors were allowed to reach 250 mm^3 in size before randomization.
# Mice were randomized as above into 8 groups of 10 mice each. […] Treatment continued for three weeks. Tumors were measured twice weekly and tumor volume calculated.
# [3] = Population pharmacokinetic analysis of seribantumab, combined phase I and phase II studies, two-compartment model; format: in vivo, human
# Text: Covariate selection evaluated potential relationships between baseline covariates (sex, race, age, weight, intended-dose, and study/indication) and volume of distribution and clearance. The results indicated significant relationships between weight, sex, and clearance, with the final parameter estimates provided in Table 1. […] In the presence of the relationship between weight and clearance, no significant relationship between volume (V) and weight (WT) were observed.
# [4] = Clinical studies of seribantumab co-administered with full doses of chemotherapy (MTD, safety); format: in vivo, human; details: co-administered with standard doses of pemetrexed, paclitaxel or cabazitaxel; 40 mg/kg loading dose then weekly 20 mg/kg
# [5] = tested on: HRG positive (HRG+) tumors; test: Previous randomized phase II clinical trials of seribantumab plus standard of care, by HRG expression; format: in vivo, human; details: seribantumab added to standard-of-care therapy; patients with HRG expression at or above threshold / HRG+ tumors
# [6] = fixed effect, final population PK estimate, 499 patients
Molecule,effect of HRG on inhibition of cell viability by chemotherapy (HRG-induced resistance) [1],tumor progression over time [2],"tumor growth, single agent [2]",also measured
"CC(=O)O[C@@]12CO[C@@H]1C[C@H](O)[C@@]1(C)C(=O)[C@H](O)C3=C(C)[C@@H](OC(=O)[C@H](O)[C@@H](NC(=O)OC(C)(C)C)c4ccccc4)C[C@@](O)([C@@H](OC(=O)c4ccccc4)[C@H]21)C3(C)C [docetaxel, 1,7β,10β-trihydroxy-9-oxo-5β,20-epoxytax-11-ene-2α,4,13α-triyl 4-acetate 2-benzoate 13-{(2R,3S)-3-[(tert-butoxycarbonyl)amino]-2-hydroxy-3-phenylpropanoate}]",induces resistance; also recorded: decreased,,,
Nc1ccn([C@@H]2O[C@H](CO)[C@@H](O)C2(F)F)c(=O)n1 [gemcitabine],,began to progress over time,inhibited tumor growth,
CCc1c2c(nc3ccc(OC(=O)N4CCC(N5CCCCC5)CC4)cc13)-c1cc3c(c(=O)n1C2)COC(=O)[C@]3(O)CC [irinotecan HCl],,began to progress over time,inhibited tumor growth,
CC(=O)O[C@H]1C(=O)[C@@]2(C)[C@H]([C@H](OC(=O)c3ccccc3)[C@]3(O)C[C@H](OC(=O)[C@H](O)[C@@H](NC(=O)c4ccccc4)c4ccccc4)C(C)=C1C3(C)C)[C@]1(OC(C)=O)CO[C@@H]1C[C@@H]2O [paclitaxel],,began to progress over time,inhibited tumor growth,
"Nc1nc(=O)c2c(CCc3ccc(C(=O)N[C@@H](CCC(=O)O)C(=O)O)cc3)c[nH]c2[nH]1 [pemetrexed, (2S)-2-{[4-[2-(2-amino-4-oxo-1,7-dihydropyrrolo[2,3-d]pyrimidin-5-yl)ethyl]benzoyl]amino}pentanedioic acid]",induces resistance; also recorded: decreased,,,
B1,,,significantly suppressed tumor growth,"CL [3, 6]: 3.15 L/wk; Q [3, 6]: 2.92 L/wk; V [3, 6]: 3.23 L; V2 [3, 6]: 2.68 L; Cov CL and V ([3]; random effect): 27%; Omega CL ([3]; random effect): 36%; Omega V ([3]; random effect): 37%; maximum tolerated dose (MTD) [4]: no MTD was identified; also recorded: no maximum tolerated dose (MTD) reached; progression-free survival (PFS) [5]: improved progression-free survival; also recorded: increased PFS"
